Experimental data reported in article PMC9283627, “Auxotrophic and prototrophic conditional genetic networks reveal the rewiring of transcription factors in Escherichia coli”.

Target: T1, YneJ (Escherichia coli (K-12 strain not …, UniProt P77309 1-293))
T1 sequence: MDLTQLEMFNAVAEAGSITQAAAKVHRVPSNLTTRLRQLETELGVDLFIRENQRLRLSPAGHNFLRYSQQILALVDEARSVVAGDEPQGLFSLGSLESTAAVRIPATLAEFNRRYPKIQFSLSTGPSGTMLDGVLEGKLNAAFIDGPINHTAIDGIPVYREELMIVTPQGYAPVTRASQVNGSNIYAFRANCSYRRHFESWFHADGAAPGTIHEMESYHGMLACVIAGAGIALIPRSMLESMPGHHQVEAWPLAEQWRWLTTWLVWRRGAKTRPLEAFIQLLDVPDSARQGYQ
Assay: fluorescence polarization; 2 mM Gln; PBS (pH 6.5), 0.5 mM EDTA, 7 mM MgCl2, 100 mM KCl, 5 mM phosphate, herring sperm DNA, 50 C; 10 nM labeled dsDNA
Conditions: protein: recombinant; tags: N-terminal His6 (Methods; called YneJ-His6 in text); chain copies: 4; label: 6-FAM on S41 (printed at the 5' end; Methods say 3' end); blunt

B1: sad-yneJ consensus motif 21 bp (dsDNA)
DNA 1: GGGTTCTCGATTCGTGAAGGG
DNA 2: CCCTTCACGAATCGAGAACCC
binding result: binds
